US20230141177A1
Positions count from the first letter of the chain named. In names and notes the source's numbering stands.

B1: parental antibody, PMN310 humanized antibody variant VH2/Vk5 (human IgG4 S241P / kappa) (antibody, V domains shown)
VH: QVQLVQSGAEVKKPGASVKMSCKASGYSFTSYWINWVKQRPGQGLEWIGDVHPGRGVSTYNAKFKSRATLTLDTSISTAYMELSSLRSEDTAVYYCSRSHGNTYWFFDVWGQGTTVTVSS
VL: DVLMTQSPLSLPVTLGQPASISCRSSQSIVHSNGNTYLEWYQQRPGQSPRLLIYKVSNRFSGVPDRFSGSGSGTDFTLKISRVEAEDVGVYYCFQGSHVPFTFGQGTKLEIKR
B2: Clone 4 (affinity matured VH with parental Vk, human IgG4 S241P / kappa) (antibody, V domains shown)
VH: B1 VH with S97A, S99V, H100S, G101P, N102T, T103G
VL: B1 VL
B3: Clone 5 (affinity matured VH with parental Vk, human IgG4 S241P / kappa) (antibody, V domains shown)
VH: B1 VH with S97A, S99G, H100A, G101L, N102S, T103P
VL: B1 VL
B4: Clone 14 (affinity matured VH with parental Vk, human IgG4 S241P / kappa) (antibody, V domains shown)
VH: B1 VH with S97A, R98K, H100D, G101A, N102S, T103G
VL: B1 VL

Legend:
[1] = molecular target: AβO in the low molecular weight (LMW) fraction of pooled soluble human AD brain extract (~8 kDa to ~70 kDa) (human) (UniProt P05067); test: SPR; BRU on LMW fraction divided by BRU on HMW fraction; Study 1
[2] = molecular target: AβO in the low molecular weight (LMW) fraction of pooled soluble human AD brain extract (~8 kDa to ~70 kDa) (human) (UniProt P05067); test: SPR; BRU on LMW fraction divided by BRU on HMW fraction; Study 2
[3] = molecular target: AβO in the low molecular weight (LMW) fraction of pooled soluble human AD brain extract (~8 kDa to ~70 kDa) (human) (UniProt P05067); test: SPR; BRU on LMW fraction divided by BRU on HMW fraction; Study 3
[4] = molecular target: Aβ aggregates in the high molecular weight (HMW) fraction of pooled soluble human AD brain extract (>70 kDa to ~700 kDa) (human) (UniProt P05067); test: SPR, immobilized antibody, brain extract fraction at 100 µg/ml injected; Study 1
[5] = molecular target: AβO in the low molecular weight (LMW) fraction of pooled soluble human AD brain extract (~8 kDa to ~70 kDa) (human) (UniProt P05067); test: as above
[6] = molecular target: Aβ aggregates in the high molecular weight (HMW) fraction of pooled soluble human AD brain extract (>70 kDa to ~700 kDa) (human) (UniProt P05067); test: SPR, immobilized antibody, brain extract fraction at 100 µg/ml injected; Study 2
[7] = molecular target: AβO in the low molecular weight (LMW) fraction of pooled soluble human AD brain extract (~8 kDa to ~70 kDa) (human) (UniProt P05067); test: as above
[8] = molecular target: Aβ aggregates in the high molecular weight (HMW) fraction of pooled soluble human AD brain extract (>70 kDa to ~700 kDa) (human) (UniProt P05067); test: SPR, immobilized antibody, brain extract fraction at 100 µg/ml injected; Study 3
[9] = molecular target: AβO in the low molecular weight (LMW) fraction of pooled soluble human AD brain extract (~8 kDa to ~70 kDa) (human) (UniProt P05067); test: as above

Binder | LMW/HMW ratio [1] | LMW/HMW ratio [2] | LMW/HMW ratio [3] | Binding to HMW (BRU) [4] [BRU] | Binding to LMW (BRU) [5] [BRU] | Binding to HMW (BRU) [6] [BRU] | Binding to LMW (BRU) [7] [BRU] | Binding to HMW (BRU) [8] [BRU] | Binding to LMW (BRU) [9] [BRU]
B1 | 1 | 1.31 | 1.52 | 27 | 27 | 13.5 | 17.7 | 5 | 7.6
B2 | 1.32 | 1.55 | 1.54 | 21 | 28 | 11.2 | 17.3 | 6.77 | 10.1
B3 | 1 | 1.43 | 1.2 | 15 | 15 | 6.57 | 9.42 | 7.88 | 9.45
B4 | 1.1 | 1.47 | 1.45 | 16 | 18 | 7.55 | 11.1 | 4.38 | 6.34
